# Values of other authors in publication PMC12469268.
# pKd, pKi: −log10 of the molar value.
# What was measured:
# [1] = biological target: integrin αvβ3 (Homo sapiens) (UniProt P06756)
# [2] = biological target: α1A-adrenoceptor (Homo sapiens) (UniProt P35348); assay: 3H-prazosin competition binding
# [3] = biological target: α2B-adrenoceptor (Homo sapiens) (UniProt P18089)
# [4] = biological target: α2A-adrenoceptor (Homo sapiens) (UniProt P08913)
# [5] = biological target: α2C-adrenoceptor (Homo sapiens) (UniProt P18825)
substance,measurement,setting,value
CTX A5 (cardiotoxin A5) (from UniProt P62375),pKd,[1],6.52
AdTx1 (from UniProt P85092),pKi,[2],9.46
ρ-Da1b (from UniProt P86419),pKi,[3],7.14
same,pKi,[4],7.85
same,pKi,[5],7.42
